experiment: soluble fraction after stress (log2 fold change); higher = more stays soluble; pooled small domains, quantitative proteomics; details: stress: pH 4
Summary of the method: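 Values are log2 fold changes, and higher ones mean more of the domain stayed soluble. Each fold change reflects the soluble amount of a domain after acid stress and is taken as a measure of aggregation propensity. The stress was pH 4, applied to pooled custom libraries of small protein domains analysed by high-throughput quantitative proteomics.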

Sequence | soluble fraction (log2)
HMFSWRQHLDHFGFSDEIKKRLADAVFLNDDWNEIDRGVLTKEELLARFIENDPGIEKEIYMVMENIN | -1.78
HMFYPIAHTLTKLNIRSGPGEQYQKLATFENNHDLVVLTQQNEWVQVRGKSDEQVIIGWVHSSFLSPT | -1.33
HMFYQLTENQRRILSSLEQNPRVSAAHLAEEIGISSRKVENNLKKLKEIGLLQRHGSPRKGYWSINQGW | 0.15
HMGAAAQLLHAVVLRVPAEDTMKFVSETPELRRYLGAPLGPTAALVRPGQEQELAAALQAHGILVEFDE | 0.12
HMGAAITEAEAKQIALDHAGVSESETERMRVKLGRDDGVQEYEVNFYVGNREYDYDINAATGEIRSHDSE | 0.22
HMGADPTTWPEIDAFVGRVAVTATGLFPSGQVEIDGRRFEARLAFGVAEPGARVVVRRRTDFGLLVEKETR | -0.531
HMGADRLVGMTAIVTATIDPNDTDRKGRVQVEGEVWSALSDGRLIITEGSKVRITEMHGTRVRVEAI | -0.884
HMGAEWTEMRVWTSTSGSKVTAEASSLTNGQVTLETKSGKRITLSIRKLVEADQKFLEAHFSK | 0.101
HMGAGLLEPEPLKIEIQETQERLQKLQKALERDTETADSKERIKRAIEAHKARISQLQGLIE | 0.0704
HMGAKVFTVPNLIGKYAIEAGIILKKEGLSEGEVKEENSDKYAAGQIIDQYPAADSPAKENDKINYVVSIG | -0.0221
HMGANSAYMAMRDRIQQRLLAELSPGVTRSDTAEVRRVVERIFNETTAELGLPLSRLERNDIFDLVLADIL | -1.72
HMGAPLAVGDSVRVVVSGPRAFVYTAPNGALSGAVRNGAAFTVLELSPDNTWARIGSGEWIKVEFLATG | -0.373
HMGATYSQFLDQVDGGNVQKVTFSGDMRSGTNQISYTTRSGQSATITAPMDRDLINILRAKNVEIVQEEP | 0.22
HMGAWQQTGFFRNRENAESLAEVLRQRGFSPVVREDTRPSGTVYYAVLVPDDGTTAARLKDAGIDSYPV | 0.367
HMGDDYFTILGIERDATTDEIRSAYRRLSKKIHPDAQGSSALFRQVQEAYETLIDPSSRARYVAELNASQG | -0.0836
HMGDERDRLLLARGKRIYQELIGSDRENVAAALREFEAVLAVNNRRAIHVMRQRLAELFGVYEEFLNEEFL | -1.29
HMGDEVAVTEILVKVGDTVEADQSLLTVEGDKASMEVPAPFAGVVKAIQVQLGDKVVTGSPIMLFEV | -0.88
HMGDFNYVMPDFRGLEAHDVSSFLNRNGFLLRPTEHEVSFTQRPGLILMHYPEPGYPFSRSSPITLVVS | -0.932
HMGDGMEVWVNGSPVNLTGKDSFIFVDIFDFIDFDLTASKGRLIVIKVNGEYAEYTRPLHNGDTIEIYWEE | -0.638
HMGDGRVGVITASIAYEYAKEVFPEGTSFLKLGLTFPLPMDLIRDFASKVEKLYVIEELEPL | -1.72
HMGDHYTALGLSIDATPEEIRSAYFLAARRSHPDANPDAQTTEWFLRVQEAYDILSNPRRRAEYDASLP | -1.46
HMGDKRPIAVGDYVKLEGQDTPGQVLSISGKNATVGFGMLKTTVKLDRLRHTMAKPQTGASAGVR | ≥ 0.43
HMGDKVTIPNLIDMKLTDAQNQYKPQGFSIVKNGERESDKEAGTILEQDKAAGTEISGKDIRIFVVVSSGS | -0.302
HMGDLAAAGNHTLEVMGFPQHPDESYRHFVGNGIPKLIERMLPAGHDKETEQKAYDIFMEYYSAHK | -0.439
HMGDPMAIMQLSSNTTPEYWEAYQKYHIQEYEQSNFIRYVNGISVLDDDFVDKVLITIDQHGRIFSELKS | -2.5

Sequence | soluble fraction (log2)
HMGDSEMPVSEVVRLAKLDQISSIEISGTKLTIITNNLETYTSRIEENSTIIEILQRAGVDIGGLEIYPHG | -0.983
HMGDVSGFLRGVLADGPVPAKTVFSEASGAGYSRDQIQRAARKIGVERRKTGMAGGWVWELEP | -0.038
HMGEAYVVPNVKNKTLGEAQLALHNQKLEGLVVDSSYVKGLPDGMILDQNPAGGARVKEGRTIYLTITTS | -0.146
HMGEDFPYVAYATDSVRLRSKPSSSGDILAVIRQGDAVLITGSDGNYKIVEYEGRKGYVISAFLSQTP | -0.438
HMGEDLTIDQLAAEVDMTVRNIRAHQARGLLPPPTIKGRIGYYGPLHRRRLQQIRAMQEEGLNLAAIAKVV | -0.533
HMGEDPYQMLGLTRQASDEEVRLAWRKLMRENHPDSLASRGVPQEFVKRATEQVAQINAAWDRIKRERG | -0.0212
HMGEELIEIQNLRNKERREAEAILKNLDLVPVIQEQFDDTVPINRVITTDPGPDSTVKKGTTVMIYVSKGP | 0.289
HMGEENLKYPLLTDGSVKTTVLEAIDKDEKWLREELAKQGYDDLSKLFLVDYLGGQLVVTPY | -0.887
HMGEESIAELISNPKLSDAKRTVILDLLSRGLTVDQIKPYIQSDDPYTAEQLQFELYKLFFTQI | -1.34
HMGEGRVRLAQEAANRFMTAMAGDRPGFEEAGRALFAGDRARFHAETEGWPEDIRDHARRLAEPALQ | -0.0593
HMGEIILVPDVKAQGVSDARYTLNQAGLDAVIADSSYNRNSPPGAVLEQMPAPGSKVKSGHAIYLIINTT | 0.0604
HMGELTSILVATKQIEPGETLSSSNTQVKSWISDLIPEGAITNPESVMGRTVSSVIGVGMPVVSLHLR | 0.0354
HMGELVIPPLRERTVVDAVAEAERLGFVVQVEPVASSLPEGRVLGQSPEPGTRARKSQVVVLQVSRG | 0.00536
HMGEPLTVVAAAGGDRLDRWLAGQLAGRSRAEIQRWIEAGQVTLAGRSLKASYRLSAGDAIDVAIPPPE | -0.0638
HMGEPVEIEEPITVRSLSEALGLKSSAIISHLMRQGVFATINQNLDKETAELIAAEYGIELRIK | -0.0783
HMGETDDDFRELEEFVEKTKFDKLGTFMYSKEEGTPAARLPEQIHGNTKKSRYNKIMSIQQKVSNEN | -0.897
HMGETPEILRDWEAAQNAVNDMLSKYAPGGYMGKIIYPLLTPLKERLEAGERTPDLYNAIVEAT | -0.763
HMGETYTIPDVRGYTLEDAMELPEIKENGFTIIEGRQIVDADVPVGQIISQTPEAESIAKSNVKEITVNIS | -0.367
HMGEVPVETKDGIKVHVHTVDKSQTAYGISRLYNITLNELYESNPEAKLELSIGQKLYFPVK | -0.426
HMGEVVRAPMPGNVLKMEVAQGQEVEEGDLLLVLEAMKMENDIVAPKGGIVIQLVVDKGMVVETDDPLVVI | -0.509
HMGEWNSVFSVPSSVVDKHLKTASSVYVKVLLVILRNAGNRISDQQISEQLSVPVDEVQEAIRYWNAAGIF | -0.816
HMGFAANLSRLMEYHNISMYRLAKEVGVHQTTVKNWLEEESEPKIAALEKIVGLLGVSYDELLG | -1.72
HMGFLTGNTQGEVNRKTKNQMVNIFLPTTPNPTSGFLLFVPKKDILRLTMTVEEGIKMIISAGMLTPS | 0.0322
HMGFTDREREIIRNDLVATGRELFGTFGLKKTSIEDLTKAVGIAQGSFYTFFNSKEELYLEVMDREGEA | -1.47
HMGGALSPDFGWLAMIDPDEGRAITLYDIASGEAIAVLDTHEARVAALAWSPDGTRLASGDQNGLIVQWEI | -1.43

Sequence | soluble fraction (log2)
HMGGEEPYGSGSLRLAAGAVVPSGYTIKGNEDSMLYHTTESPWYKQTIAEVWFNAESAAQRAGFTRWDAKD | -0.672
HMGGEIGSGKNGYVAFYKGKKVDVKADSMYGAQKTAAKYFNAKKEYDVNVVLAEVDGKQYVQS | 0.151
HMGGGVERLTPRQREVLGYMAEGRSNSWIAGAIGFSEKAVVQHTSKIYDALGLAVDADDHRRVLAVLRYLT | -1.07
HMGGKWKLRILWHIHHGDTRFSTLKRGIPEISEKILAQQLRELEEHQLIKRRVVTVMPPHVVYEL | -0.518
HMGGLAEIILNAIEIEGGFLPITDKSAPELIQSRLGMSKKAFKEAVGTLYKNRDIAIEPNGLRKI | -0.162
HMGGLALAEREVVEWLSQRNLLPSPDVVARAAAHPDGLGWLERSLAVLEGPRLFLGLGDLVPEP | -1.02
HMGGLAVQLVHAMTDQIRSGRLKAGDKLPTEAAIMKDFGVSRTVVREAISRLQASGWVDTRHGIGTFVLHQ | 0.188
HMGGLIEPLSARELEVLELMSLGKTNQEIARDLVVASGTIKAHAASIYRKLDAANRTEAVTHARELGIL | -0.814
HMGGPEVLELEDVKVGSPGPDEIKVTNHAIGLNYIDTYHRSGLYPLKLPSGIGLEAAGKVEEIGSNV | -0.511
HMGGQEEALNRLVLRELLGTLEKKERDLIVRRYFYDQTQTKIAEALGISQVQVSRMEKRILKKMREGF | -0.833
HMGGRSARVRRAVLDAVVELLGEGGVRAVTIAEVAKRSGVNASSIYRRWRSIDALILDAAQDL | -0.578
HMGGSDIYLGAFNIPQGSVRVTSGGQALTEGKDFTIDYNLGSVKIINQAILNSGIPVSVSYENNAG | -0.294
HMGGSLADAKRFLADLLADGPVPAKGVRADADGAGHTWPTIRRAQKALGIEATKTGMKGGWVWALPR | 0.00461
HMGGSVYTVQKGDTLWSIAKEQLGSPLRYAEIYDLNKDVIEEAARGRGKKDSSNGHWLVVGTSLQIPEAT | -0.077
HMGGTAGKINAIGVNFRTGPSTSYTSLGLLGKDTAVTVIGTSGKWYKVTIVSTGKTGYVYATYVNLTP | -0.102
HMGGVIEDDRGQWAHPGEVTKINSNNITMKGVDFPVLGISDTGDKKMMQPGKDYKFDGNSVTEYPMA | -0.5
HMGGWEEGVYVVREGDTLSDIVHDAVKGTEIHPDFILNAIVRVNPSAFVRGNPSWMLAGKKIK | -0.373
HMGGYVTGTIDLTKFGYAFVITEESEDDVFVAARNLNTALHGDQVKVLLYARHKGKRPEGEVVEIISRSRA | -1.4
HMGHEEPITFDRLPQAAQTFLKTHFDTLTVAYIVADRKFMGVEYEVKYTDRTEVDFRSDGQWESV | -0.443
HMGHKTLTVELQEKIENLPQTLDKYNLTLGNNKMSVDYTYSVKEKQTGITNLLQDLKEHKFDIVYLVGQDN | -0.613
HMGHLSNENAGRLLDRVLNDKIHAIMLGHLSKENNMPELAHEAVRMEITMGESRYKADDFPIYVA | -0.00322
HMGHTKLVVDIVEELKLEQGALLPILHAIQDELGYVPTKSVPFIADSLNLSRAEVHGVISFYHYFR | -0.741
HMGIAWGMLREQVAASDVSYRSEVLDILDRTPVWIYDAEGKIVDGRKKRLMDLQGGEPYRHMLEHFFPDLR | -1.96
HMGIDAIDNFVSKIIMKIEGLGESEVPTSTIGKFIMEGLQYLDTVAYVRYASVYKNFKEAKDFEQFVGSL | -0.566
HMGIDRPLFTLAQFARQIGEQVKISLSLPQDGRRRLQGKVLSVGESGIVLDVDGREFTVAIGNVDKARL | -0.197
